Measured values: the domain aggregation screens of Martell et al. (2025)

Assay: soluble fraction after stress (log2 fold change); higher = more stays soluble; pooled small domains, quantitative proteomics
Conditions: stress: pH 4
Procedure, shortened: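 Aggregation propensity is estimated from the fold change in each domain's soluble amount after acid stress. Pooled small-domain libraries were stressed at pH 4, and higher log2 values mean more stayed soluble.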

Sequence | soluble fraction (log2)
HMGETYTIPDVRGYTLEDAMELPEIKENGFTIIEGRQIVDADVPVGQIISQTPEAESIAKSNVKEITVNIS | -0.367
HMAPEEIPLDRVVRLVEQGRVESIVVTGERLEVTLQNGTVYGSTKENGVGFMETLDRYQVPLEQRDFSYEV | -0.72
HMVRVSELAIEPRLVVEETATGFVGAVVRYANGLIELEDRHGAVRTFPLGPGYLVDGRPVSLVKPT | -0.35
HMKRDRLYGITIYLLNHGRTSAKTLAEYFEVSVRTIQRDMDALSMAKIPIIAYPGSDGGYEIQEGYRL | -0.37
HMDTLTRAMVWTIIARAEGVDTTGGATWYAKAQEWVTAKGISDGENPNAAITRQELVTMLYRLAGEPAV | -0.681
HMRKPDLTSVRTLIRSVSKLARHLKISPNGIYRWISVNRIPGAHVVKVANYYDVEIRDLVHLTGSD | -0.578
HMAAELQALSVRELEVLDQLAGGASNREIAQRLYISENTVRNHVHSILTKLKLQNRTQLVGMT | -0.705
HMIDIDTILKKYKPGRRDELIPLMQEIQEVYGHLSEEAVVKIGTYVGLSTTKIYGLATFYDQFRF | -0.874
HMKIMSLSERHQKILELLKVNGIVSVNSLSRQLNVSSVTIRKDLGLLEEKKLLYRSHGGAIQID | -0.213
HMGGLIEPLSARELEVLELMSLGKTNQEIARDLVVASGTIKAHAASIYRKLDAANRTEAVTHARELGIL | -0.814
HMEAFELTPREKQVLQLLVQGKAYKIIAADLDITYDTVRAHIKKIYEKLHVGSMTEAVAKAIQHKL | 0.194
HMNNLPDFIKQLRKENNLTQEYVASEIGVSRPTYEQIEKGKRELTISEAEKLAKIFNIPLENFLQGKKGV | -0.0996
HMNNYFPAYKGSATSIAPALKQMGVNNSYAYRSKIAAVNNITGYRGTPAQNTQMLNLLKQGRLIK | -0.156
HMPPSQRVNRILSLAGITSRRKADEYILEGRVTVNGEVLKEPGAKAVWGTDDIRVDGKPIPALS | 0.275
HMYGTQTVNRGAVQPGMLVKHKDSTWTASANARGRLYLHRGVEMTYTRDLLVEVYLNGLGNGL | -0.342
HMFNEFEDIPDIISAEGIDPAMREEVAANLKKYYKNPDAMLALAPLEREYYEKLVGILSEKIELKKEN | -0.361
HMDFYIVLGVDRAASVSDVKRAYRRLARKYHPDINPGDREAEAFFLRVTEAYETLIDPDRRQDYDVNG | -1.31
HMPQETPIPKSEIQSYDEIWLEPISTDNILRNELRGWYHVKDRWVENEFGNRFYLDTYASKWLAFPS | -0.752
HMADLTIDGVEYTKVSPTGTLTLEKVYTKNVTPADGQYYIQTGTKTVRVATDAEVAVIKAGGF | 0.247
HMQGLIGEQKAIQIALSRVPGAKPEHVRELKLDYDDGMQLYEGEIFYNFREYEFEINAVTGEVVGWEI | -0.839
HMQLGQMIVKLRKEQGLTQETFAKKFNVTRQTVSNWENEKSYPDLHTLVKISDEFHLSLDILLK | 0.272
HMVEGVSLVEIYVDENSKYNGKLLSEIPKKENTLVIMIQRGEQVIIPHGNIRLESGDMLVVSKTEI | -1.38
HMQQPIPGEAYLTRRPGSDHFQIAFTIDGHRVRESSGTSDKVAAAALAQKRYEEVWREIKLGEK | -0.0232
HMPGRVITVMVNGKRVDLPFREEPYIFVDLFRYMDFDVERARGRIQLAINGKKAGYTDIIREGDSIEI | -1.02
HMAYWVVKNNQVSLQINRSNYQITSTARALSNGNLGDEIDVKVLQSGVIKKAVVIGKGQVELLR | 0.163

Sequence | soluble fraction (log2)
HMLNMSVYDKQLLRAVENNPFISQRELARELHWNVDRVKYYMKKWKDKGGLRHVGSSHKGYWEVLVRIEEK | -0.0578
HMQEQSSYVGQFGTAATTLRPSGTVELEDGTRIDVVTVGEFIEKGEPVQVVRKDGTWLVVEKRRSK | 0.122
HMIYRTTSVPIDNISTQKFNLQEGWIEMNKNEVEDFIRQKNLELVVTDSNVMLDKFALNGDPNKFKVFKY | 0.104
HMNMYTVTGRLVDQDGVPQANALVTIDSSSQQTRTSPQGFYLIKVFGTEPSTIKFLVDGYDPQIVNFTP | -0.278
HMDGVLVYKEGMTVADMATGLGKTIAQVVMKLMQLGIMANQNQSVDRETVELVALDFGYELKD | -1.39
HMLSSNEIKEIFALFDKSNRGQVATSELGTLVRALNLNPTETEITDMQSKVDPKGQGSFTLDVLEKVVQD | -0.929
HMAQTEIPYSEFLREVGNGQIKSVIIEGSEITGFYKTSGTSFNVVAPDDPKLVERLMDQGVEVRAQPT | 0.193
HMNEIESFSNTKNPFSLTFKTSKDSSYKVEASSNLKKWTTLSQIKGTGNPITFTESRRILFRKQYYRVTLS | 0.102
HMNKDWQDEVALQRYTMITPLLSEDLDNAKRIAMREKIAQDNLTTARSLYRYEKAYRENGFQGLRPTD | -0.262
HMNERIKSLRKALGLTQQEFADKLGISRGNIGAYEVGKNAPSDAVISLIVRIFNTNENWLRTGEGEM | -0.246
HMFAATGTVNTEGSSLRLRAEASTSSSVLKQLSHGTQVDVLSGLVDGWYQVSYKGTTGYVSGEYLTVTE | -0.000126
HMDHKSQLQEWAQSTLGETPRYVTIAETGPDHDKELTVELIIGRKSYSIAKGKSKKQAEQSAARIALGLLM | -0.504
HMLLTDGLERRIDGDKNLHIRISLPMLVKGQIKLAKSGNNESTVKGIFKIESYPGSHPRDVVTEIIEG | -0.0816
HMGGSDIYLGAFNIPQGSVRVTSGGQALTEGKDFTIDYNLGSVKIINQAILNSGIPVSVSYENNAG | -0.294
HMNLPISDREKELLTLLSKGLLYKEIASKLDITIGTVKQHIHNIYHKLHVSNKTEALNLFNK | 0.172
HMNQIATSTQAIITTLSFLNTSSIFKLPVGDTASRPTGVSPGTLRFNSQEDSAEIYKADDGTGSAGWTEVA | -1.3
HMIKLSEAEWKVMKLLWEESPKTMMQITNLLKETTGWTKHTVMTFLKRMEEKKAIHYEEGGRAKLYYP | -0.0902
HMLPDLQESIDELLNIVDQRLNTSFEELVSGVNTTEKAIAFFLALLETIKWGFIKAEQTNNENKINIEKNY | -1.4
HMIKVASVDGASDELAHEIREIMPLDFPVSYFDLDIKYLHKVLNDIPAVESAAIKVTVSGVLQIDISER | 0.248
HMEIFYGDDRVYTVSLHGQNNFPFRKKTSDFDYGFEDGTGDEEYLRVLDVTLSRLENEQFDLLFFQAGV | -0.842
HMVTYELTEDEKFIVSLLEKENSQPIGALKDKSALSGKKWDAAMKGLAKHGLTKVVVDGDNKLVVL | -0.184
HMSVLSVASKNQAINPGQVVALLKDGIKLNDDGRVEILDNNNNIRYNEKGNLLSIEERVKEFLDANPHFRQ | -0.134
HMSIGLEDLIEQKGVADTDLRPSGWINVGNQRIFVVTEGSYIDQNDNVIILSVDGNRVVVRKI | -0.941
HMTIDTSNDLLNQITEATSKGPISILELKDQLNVNASDIEGELRTLIDQHLVFLKDGMLQVIPFD | -0.423
HMSNTGDIIRKLREESGVTAKELAHRIGLSASQMSRLESGKRRINSEVLTRIARALEVAPSQLID | 0.17

Sequence | soluble fraction (log2)
HMETGLSNYEFKRIREQAEALLSDGQVRRINDLVDSIKNENAEKVIRVIRFLIDTEELILEDDRVSAKKS | -1.42
HMTPVYLNARQKQILAFLKREEPAKVGDIAHALKTISINTLKKDLLYLRQKNLIESHGVLKGTIYTVK | 0.209
HMPSKKHARWIELEARKFMADNEDAVSDLHELRTRAANFAALKTSTLPVDQHRAIVAGFVARVNELGRRI | -0.19
HMNVDSIPGKSGIVTQGIDNLKAMGRVTVNGMEWTARSKDGSLIEEGKVVRVYGVEGVKLIVEED | -0.72
HMNNLGSKIKELRIAENLTQEKLAEELNVSFQSISRWENGISTPDISLIPAIARFFGVSTDYLFGLQD | -1.03
HMAGTAFPVRIMLKGIDRIGLLNEITGYISVAMGVNMRKLNLSTEDGIFEGYIDMLVHDRTVLESMIDNL | 0.22
HMVEMPEVGVKVRIEVESHNGSTNFEGIVLHPASKGHLTLKLINGYNASYLIEEIRNLEIIDSS | -0.763
HMRTAFPQLTERELEILDLIAAGRNNAQIASALYLAPKTVRNNVSNILAKLQATDRAEAIIRARDAGLGG | 0.273
HMDEKPPHEALSNREFQVLQLLAQGRSVGQIAQQLTLSANTISTYRARIFDKLGLHNPADLFSYAARHRLT | 0.111
HMNSEFPFNGGRIVDNVPANRLQIFFDEKPDADVRTRLKQNGFRWAPNSGAWQSYRHGYTLDWARREFNA | -0.197
HMVQAQGARIREARVQRGLSQAQLGEPRYSGSYISHIENGRRSPGTDVLAFIAARLGLEPGALDS | -0.164
HMEFDFGAILSGNGGSELYSGYSAEQKAALVEAAKADGMDVEFGADGSTTFKDKDGSEVVQKADGTWTV | -0.0653
HMQKWILVNKQGRLSGILDHRAFNTRESATAWFQRTSDISGGTIKIDDYYYVLKNEEYKLLKE | -1.34
HMANKTISMTTLKLVIQQLSKGISRQSISAQYHISRNTIKKYEKRIKAMDMKIEDILKLSDEEISNLLQ | -0.273
HMEDIAAIAQRIQGLRDIVGISVEEMAKALDISEQEYREYEKGETDFSFSFLYTVANVLGINITDLI | -1.56
HMASDYYTTTANLNLRSGAGTTYGSLIIIEKGDTVKLLENVNDHWVKIQYDDKIGYVAMSYLLPIE | -0.113
HMGGEEPYGSGSLRLAAGAVVPSGYTIKGNEDSMLYHTTESPWYKQTIAEVWFNAESAAQRAGFTRWDAKD | -0.672
HMHGESIPIPNILHKRYADAEQIVNNLRLEIEVTDTGYVRSLPPGAILEQTPGPGERVKSGHIIYVTINAA | -0.0135
HMEDISLYKILRAHSIDNLKLSQWIIDSLKTKFSTIGELQDAKIDDIRMYRIQDVRIEKIKNAVTEYMA | -0.701
HMGDGMEVWVNGSPVNLTGKDSFIFVDIFDFIDFDLTASKGRLIVIKVNGEYAEYTRPLHNGDTIEIYWEE | -0.638
HMYAVDTIHKGTITEMTDKGAVVSLGDNIDGFAPARQLVKEDGTTLKLGDTADFKVIEFSKATKRITLSH | 0.094
HMRPKAIFVDVDDTLVRSVGQTRIPMPAVIAHIRRLHDAGHQLYLWSSGGADYARASAEELGIGQYFQAFL | -0.32
HMADTSPEGVQKLIKAFEQFGVSKDDIEGFIQRRVDAITPANVVSLRKIFTSLRDGMSSAKDWFKGA | -0.325
HMFEQFEVENLQELQQEWGDKFNHNLEMARRAFMNFATPEAVKVLEETGMGNHPELLKVFARIGEVLAED | -1.22
HMNHYTEEYILKRMKDFFTTHAYITRRDIESLFGFRRSYATKWLKHFRESGVLKQSGPVNSAVYLL | -1.12
